In this series the target is T1, Bst 2.0 DNA polymerase (UniProt P52026).
T1 sequence: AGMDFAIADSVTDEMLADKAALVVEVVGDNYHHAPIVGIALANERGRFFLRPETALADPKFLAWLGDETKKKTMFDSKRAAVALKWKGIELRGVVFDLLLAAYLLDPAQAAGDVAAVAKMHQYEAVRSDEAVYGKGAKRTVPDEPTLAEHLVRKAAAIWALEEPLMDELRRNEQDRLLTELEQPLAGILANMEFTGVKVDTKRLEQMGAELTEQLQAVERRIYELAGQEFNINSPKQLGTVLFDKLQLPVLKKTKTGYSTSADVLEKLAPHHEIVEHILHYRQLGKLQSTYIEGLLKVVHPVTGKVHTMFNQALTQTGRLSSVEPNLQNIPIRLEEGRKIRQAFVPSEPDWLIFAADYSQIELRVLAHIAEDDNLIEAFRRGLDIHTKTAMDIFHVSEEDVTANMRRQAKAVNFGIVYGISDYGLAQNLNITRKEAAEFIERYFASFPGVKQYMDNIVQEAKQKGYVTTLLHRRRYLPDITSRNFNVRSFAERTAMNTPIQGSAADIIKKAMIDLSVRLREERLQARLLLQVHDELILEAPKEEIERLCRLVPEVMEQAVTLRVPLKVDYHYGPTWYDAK
To be noted: N6-allyl-N6-methyladenosine at centre of NNANN, I2-cyclized; mutation rate on all DRACH motifs during reverse transcription; MgSO4, PEG 4000, 37 C.

Take UCGACGUNNANNGGCAUUGCU [NNam6ANN probe]: the activity was > 25%.

The record behind these values is patent US20220364173.
